Results: patent publication US20120164670A1, “METHODS AND KITS FOR MEASURING ENZYME ACTIVITY” (President and Fellows of Harvard College, priority 2009, published 2012)

Substrate: CC(=O)NCCCC[C@H](NC(=O)[C@H](CCCNC(=N)N)NC(=O)[C@H](C)NC(=O)[C@@H](N)[C@@H](C)O)C(=O)N[C@@H](CO)C(=O)N[C@H](C(=O)NCC(=O)O)[C@@H](C)O
Assay: Sirtuin assay kit (PNC1-OPT) with hSIRT1 enzyme
Assay type: biochemical, human
Conditions: other: kit protocol, Experiment 2 mastermix; pH 8.0; 37.0 °C
Protocol: Kit contents are generally stored at −20° C. Modifications or variations in volumes or amounts of components described below are compatible with kits and assays described herein. • 1) Assay Buffer: 2 tubes with 1 mL each of 10× Assay Buffer. Dilute to 1× with ddH20 prior to use. • 2) Non-tagged Peptide Substrate: 1 tube with 140 uL of 5 mM H3K9ac substrate (TARK(ac)STG)) (SEQ ID NO:23). This is a sample substrate only; any substrate may be used in this assay. • 3) β-NAD: a) 1 tube with 450 uL of 10 mM B-NAD, and b) 1 tube with 50 uL of 100 mM B-NAD. In some instances, it is preferable to keep β-NAD in concentrated aliquot form, and dilute it prior to use. • 4) hSIRT1 Enzyme: 1 tube with 400 uL of 1.1 ug/uL full-length human SIRT1 enzyme. • 5) yPNC1 Enzyme: 1 tube with 200 uL of 2 ug/uL yeast PNC1 enzyme • 6) Developing Reagent: 2 vials with 10 mL each 1× Developer (10 mM OPT/10 mM DTT in 100% EtOH). Minimize exposure to light as outlined in the procedure. […]
In some instances, when adding the OPT Developer it is advisable to work in a dark or dimly lit setting. […] Once covered, ambient lighting may be restored. • d) Read the samples. Samples may be transferred to a 96-well plate for reading (do this under dim light). Read the fluorescence on a fluorometer with filters set to excitation ˜420 nm, and emission ˜460 nm. […]

B1: full-length human SIRT1 enzyme (Homo sapiens) (protein)
chain: MADEAALALQPGGSPSAAGADREAASSPAGEPLRKRPRRDGPGLERSPGEPGGAAPEREVPAAARGCPGAAAAALWREAEAEAAAAGGEQEAQATAAAGEGDNGPGLQGPSREPPLADNLYDEDDDDEGEEEEEAAAAAIGYRDNLLFGDEIITNGFHSCESDEEDRASHASSSDWTPRPRIGPYTFVQQHLMIGTDPRTILKDLLPETIPPPELDDMTLWQIVINILSEPPKRKKRKDINTIEDAVKLLQECKKIIVLTGAGVSVSCGIPDFRSRDGIYARLAVDFPDLPDPQAMFDIEYFRKDPRPFFKFAKEIYPGQFQPSLCHKFIALSDKEGKLLRNYTQNIDTLEQVAGIQRIIQCHGSFATASCLICKYKVDCEAVRGDIFNQVVPRCPRCPADEPLAIMKPEIVFFGENLPEQFHRAMKYDKDEVDLLIVIGSSLKVRPVALIPSSIPHEVPQILINREPLPHLHFDVELLGDCDVIINELCHRLGGEYAKLCCNPVKLSEITEKPPRTQKELAYLSELPPTPLHVSEDSSSPERTSPPDSSVIVTLLDQAAKSNDDLDVSESKGCMEEKPQEVQTSRNVESIAEQMENPDLKNVGSSTGEKNERTSVAGTVRKCWPNRVAKEQISRRLDGNQYLFLPPNRYIFHGAEVYSDSEDDVLSSSSCGSNSDSGTCQSPSLEEPMEDESEIEEFYNGLEDEPDVPERAGGAGFGTDGDDQEAINEAISVKQEVTDMNYPSNKS
notes: 1.1 ug/uL full-length human SIRT1 enzyme
For B1, the Km was 50 µM.
